Measured values published in patent US20170224836A1 (Novartis, published 2017).
Like-named read-outs stand apart in the source and are kept apart here.

Key:
hCDH6aa54-615 APPavi [1] = target: T1, hCDH6aa54-615 APPavi (human, UniProt P55285 54-615); experiment: SPR binning
T1 sequence: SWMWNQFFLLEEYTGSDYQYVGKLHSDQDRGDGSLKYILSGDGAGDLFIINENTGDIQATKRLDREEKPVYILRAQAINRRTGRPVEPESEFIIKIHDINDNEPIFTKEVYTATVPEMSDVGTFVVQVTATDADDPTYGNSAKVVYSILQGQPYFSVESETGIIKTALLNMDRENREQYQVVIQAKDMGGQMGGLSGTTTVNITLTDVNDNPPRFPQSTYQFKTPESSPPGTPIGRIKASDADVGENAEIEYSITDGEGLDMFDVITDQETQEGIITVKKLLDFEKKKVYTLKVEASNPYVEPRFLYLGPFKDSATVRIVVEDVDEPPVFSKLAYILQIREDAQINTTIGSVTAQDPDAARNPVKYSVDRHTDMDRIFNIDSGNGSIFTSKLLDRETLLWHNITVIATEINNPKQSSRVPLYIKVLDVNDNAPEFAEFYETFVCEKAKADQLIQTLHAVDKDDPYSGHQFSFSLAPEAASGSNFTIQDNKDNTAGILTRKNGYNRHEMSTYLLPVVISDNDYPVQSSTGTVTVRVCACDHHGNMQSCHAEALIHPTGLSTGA

rat CDH6 on cells = target: T2, rat CDH6 on cells (rat, UniProt P55280 54-789); experiment: FACS on CHO-ratCDH6 cells
T2 sequence (looked up): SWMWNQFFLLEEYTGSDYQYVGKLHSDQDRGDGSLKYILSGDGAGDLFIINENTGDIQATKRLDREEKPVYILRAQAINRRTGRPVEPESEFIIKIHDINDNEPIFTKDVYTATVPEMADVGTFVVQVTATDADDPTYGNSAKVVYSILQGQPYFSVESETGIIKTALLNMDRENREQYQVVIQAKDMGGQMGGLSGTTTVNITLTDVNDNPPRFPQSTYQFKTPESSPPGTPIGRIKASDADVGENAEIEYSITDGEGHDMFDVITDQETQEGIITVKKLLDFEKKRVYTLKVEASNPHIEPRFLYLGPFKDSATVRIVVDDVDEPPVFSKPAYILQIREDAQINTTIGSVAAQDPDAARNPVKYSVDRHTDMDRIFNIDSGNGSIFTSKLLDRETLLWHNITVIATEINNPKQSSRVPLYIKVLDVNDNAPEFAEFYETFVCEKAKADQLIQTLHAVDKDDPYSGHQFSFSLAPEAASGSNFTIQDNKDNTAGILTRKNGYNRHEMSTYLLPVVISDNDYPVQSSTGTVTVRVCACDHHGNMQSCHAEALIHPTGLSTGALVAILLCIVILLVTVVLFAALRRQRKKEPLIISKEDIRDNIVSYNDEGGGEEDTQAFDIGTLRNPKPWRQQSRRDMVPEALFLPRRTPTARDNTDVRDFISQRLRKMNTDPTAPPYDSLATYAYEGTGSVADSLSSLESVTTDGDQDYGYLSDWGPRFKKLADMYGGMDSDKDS

hCDH6aa54-615 APPavi [2] = target: T1, hCDH6aa54-615 APPavi; experiment: SPR binning; remark: listed apart in the source
human CDH6 on cells [3] = target: T3, human CDH6 on cells (human, UniProt P55285 54-790); experiment: FACS on OVCAR3 cells
T3 sequence: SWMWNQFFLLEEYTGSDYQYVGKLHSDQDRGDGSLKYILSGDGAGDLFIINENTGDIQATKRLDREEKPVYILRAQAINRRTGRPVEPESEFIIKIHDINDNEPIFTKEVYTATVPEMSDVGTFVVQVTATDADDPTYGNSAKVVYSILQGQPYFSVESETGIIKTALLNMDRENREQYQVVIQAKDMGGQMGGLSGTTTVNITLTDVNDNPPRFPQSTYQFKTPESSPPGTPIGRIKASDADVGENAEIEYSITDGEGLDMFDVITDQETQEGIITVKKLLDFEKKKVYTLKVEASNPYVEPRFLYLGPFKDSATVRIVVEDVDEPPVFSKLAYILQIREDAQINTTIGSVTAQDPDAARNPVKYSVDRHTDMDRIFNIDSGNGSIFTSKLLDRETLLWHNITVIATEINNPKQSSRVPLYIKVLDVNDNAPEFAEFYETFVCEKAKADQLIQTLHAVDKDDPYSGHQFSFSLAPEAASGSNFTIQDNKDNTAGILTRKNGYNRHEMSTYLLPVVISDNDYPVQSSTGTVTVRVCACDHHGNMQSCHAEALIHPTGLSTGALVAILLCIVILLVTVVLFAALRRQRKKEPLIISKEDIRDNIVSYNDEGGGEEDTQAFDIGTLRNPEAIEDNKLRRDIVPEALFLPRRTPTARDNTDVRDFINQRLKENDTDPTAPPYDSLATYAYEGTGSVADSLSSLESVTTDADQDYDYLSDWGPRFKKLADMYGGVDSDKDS

human CDH6 on cells [4] = target: T3, human CDH6 on cells; experiment: FACS on CHO-TO-humanCDH6 cells plus tetracycline
hCDH6aa54-615 APPavi [5] = target: T1, hCDH6aa54-615 APPavi; experiment: SPR binning; remark: listed apart in the source

response of secondary antibody on primary antibody-CDH6 complex (hCDH6aa54-615 APPavi [1]): 16.5 | EC50 (read off the curve) (rat CDH6 on cells): ~1 nM | response of secondary antibody on primary antibody-CDH6 complex (hCDH6aa54-615 APPavi [2]): 9.51 | EC50 (read off the curve) (human CDH6 on cells [3]): ~400 pM | EC50 (read off the curve) (human CDH6 on cells [4]): ~900 pM | response of secondary antibody on primary antibody-CDH6 complex (hCDH6aa54-615 APPavi [5]): 6
B1: NOV0712 (antibody, human IgG1, kappa, V domains shown)
VH: QVQLLESGGGLVQPGGSLRLSCAASGFTFSSHGMHWVRQAPGKGLEWVSVISGSGSNTGYADSVKGRFTISRDNSKNTLYLQMNSLRAEDTAVYYCARQWGSYAFDSWGQGTLVTVSS
VL: DIQMTQSPSSLSASVGDRVTITCRASQSISSYLNWYQQKPGKAPKLLIYAVSTLQSGVPSRFSGSGSGTDFTLTISSLQPEDFATYYCQQSGTFPPTTFGQGTKVEIKR
